From US20100249029A1 (Novo Nordisk, published 2010)

How the values were obtained:
[1] = target: T1, Biotinylated prolactin receptor BirATag-Ser-PRLR (1-210) (human, UniProt P16471 25-234, biotinylated (BirA tag, biotin added during expression in E. coli)); assay: SPR (Biacore); biotinylated BirATag-Ser-PRLR (1-210) amine-coupled to CM5 chip, variant injected at 3.13-50 nM; STDEV 0.56
T1 construct: range 1-210; also called BirA-Ser-PRLR (1-210); not shown: BirA tag (biotin acceptor tag)
T1 sequence: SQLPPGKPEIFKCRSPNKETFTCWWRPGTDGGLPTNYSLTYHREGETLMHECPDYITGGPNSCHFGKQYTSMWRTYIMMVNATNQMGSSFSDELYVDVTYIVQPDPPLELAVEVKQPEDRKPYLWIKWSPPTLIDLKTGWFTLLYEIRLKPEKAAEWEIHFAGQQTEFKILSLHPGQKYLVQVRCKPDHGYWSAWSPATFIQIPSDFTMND
Procedure: (§1) Biotinylated prolactin receptor BirATag-Ser-PRLR (1-210) was diluted to 20 μg/ml in 10 mM sodium acetate pH 4.0 (Biacore BR-1003-49) and immobilized on a CM5 chip (Biacore BR-1006-68) with the immobilization reagents 1-ethyl-3-(3-dimethylaminopropyl) carbodiimide hydrochloride (EDC), N-hydroxysuccinimide (NHS) and 1.0 M ethanolamine-HCl pH 8.5 (Biacore BR1000-50). The immobilization level was 1500 RU. The PRL variants prepared as described in Example 5 were diluted to a series of concentrations as following: 3.13/6.25/12.5/25/50 nM and run through the PRLR immobilized chip using HBS-EP (10 mM HEPES pH 7.4; 150 mM NaCl; 3 mM EDTA; 0.005% v/v Tween-20) as the running buffer under the following conditions: […]

[2] = target: T1, Biotinylated prolactin receptor …; assay: SPR (Biacore); biotinylated BirATag-Ser-PRLR (1-210) amine-coupled to CM5 chip, variant injected at 3.13-50 nM; STDEV 0.22
Procedure: as §1

[3] = target: T1, Biotinylated prolactin receptor …; assay: SPR (Biacore); biotinylated BirATag-Ser-PRLR (1-210) amine-coupled to CM5 chip, variant injected at 3.13-50 nM; STDEV 0.51
Procedure: as §1

[4] = target: T1, Biotinylated prolactin receptor …; assay: SPR (Biacore); biotinylated BirATag-Ser-PRLR (1-210) amine-coupled to CM5 chip, variant injected at 3.13-50 nM; STDEV 0.028
Procedure: as §1

B1: Ser-PRL D68N, G129R (ligand)
chain: SLPICPGGAARCQVTLRDLFDRAVVLSHYIHNLSSEMFSEFDKRYTHGRGFITKAINSCHTSSLATPENKEQAQQMNQKDFLSLIVSILRSWNEPLYHLVTEVRGMQEAPEAILSKAVEIEEQTKRLLERMELIVSQVHPETKENEIYPVWSGLPSLQMADEESRLSAYYNLLHCLRRDSHKIDNYLKLLKCRIIHNNNC
- Kd [1]: 4.9 nM

B2: Ser-PRL D68N, G129R, K190R (ligand)
chain: SLPICPGGAARCQVTLRDLFDRAVVLSHYIHNLSSEMFSEFDKRYTHGRGFITKAINSCHTSSLATPENKEQAQQMNQKDFLSLIVSILRSWNEPLYHLVTEVRGMQEAPEAILSKAVEIEEQTKRLLERMELIVSQVHPETKENEIYPVWSGLPSLQMADEESRLSAYYNLLHCLRRDSHKIDNYLKLLRCRIIHNNNC
- Kd [2]: 2.8 nM

B3: Ser-PRL S33A, Q73L, M75T, N76S, F80L, G129R, K190R (ligand)
chain: SLPICPGGAARCQVTLRDLFDRAVVLSHYIHNLASEMFSEFDKRYTHGRGFITKAINSCHTSSLATPEDKEQALQTSQKDLLSLIVSILRSWNEPLYHLVTEVRGMQEAPEAILSKAVEIEEQTKRLLERMELIVSQVHPETKENEIYPVWSGLPSLQMADEESRLSAYYNLLHCLRRDSHKIDNYLKLLRCRIIHNNNC
- Kd [3]: 3.3 nM

B4: Ser-PRL S61A, G129R, K190R (ligand)
chain: SLPICPGGAARCQVTLRDLFDRAVVLSHYIHNLSSEMFSEFDKRYTHGRGFITKAINSCHTASLATPEDKEQAQQMNQKDFLSLIVSILRSWNEPLYHLVTEVRGMQEAPEAILSKAVEIEEQTKRLLERMELIVSQVHPETKENEIYPVWSGLPSLQMADEESRLSAYYNLLHCLRRDSHKIDNYLKLLRCRIIHNNNC
- Kd [4]: 2.4 nM
